Experimental data: US12577311

Assays:
CD70-APC = CD70-APC (UniProt P32970); experiment: FACS binding
[1] = molecular target: CD70 on CD70+ skrc-59 ccRCC cells (UniProt P32970); experiment: FACS binding; conditions: Fc fusion
Sequence of CD70 on CD70+ skrc-59 ccRCC cells (P32970 whole entry, the tested form may be a part): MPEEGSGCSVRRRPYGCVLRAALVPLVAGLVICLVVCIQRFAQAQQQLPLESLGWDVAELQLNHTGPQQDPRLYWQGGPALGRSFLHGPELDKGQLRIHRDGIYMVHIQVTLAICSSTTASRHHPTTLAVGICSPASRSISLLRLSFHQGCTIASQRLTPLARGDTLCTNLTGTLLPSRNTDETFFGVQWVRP

Sequence of CD70-APC (P32970 39-193): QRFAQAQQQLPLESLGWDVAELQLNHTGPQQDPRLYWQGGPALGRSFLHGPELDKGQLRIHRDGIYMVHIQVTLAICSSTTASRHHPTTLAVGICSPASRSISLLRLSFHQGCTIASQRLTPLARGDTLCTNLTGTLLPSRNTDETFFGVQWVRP

| Substance | EC50 (CD70-APC) | EC50 [1] |
| --- | --- | --- |
| CD27 | 0.917 µg/mL |  |
| anti-CD70 minibody #7 (from UniProt P01721 20-117) |  | 0.114 µg/mL |
